Values quoted from earlier work as cited in PMC6474356.
Like-named read-outs stand apart in the source and are kept apart here.

How the values were obtained:
[1] = biological target: calmodulin (Homo sapiens) (UniProt P0DP23)
[2] = biological target: calmodulin (Homo sapiens) (UniProt P0DP23); remark: listed apart in the source

| Substance | Kd [1] [nM] | Kd [2] [nM] |
| --- | --- | --- |
| eEF-2K CBD peptide CBD (from UniProt O00418) | 245 | – |
| eEF-2K (from UniProt O00418) | – | 17 |
